Residue numbers refer to the chain shown, from its start.
B1: NBX0749 (VHH)
VHH: QVQLQESGGGLVQAGGSLRLSCATSGSIFSRDTMAWYRQVPGEQRELVAYITNFGGTNHADSVKGRFTISRDNAKNTVYLQMNSLKPEDTAVYYCAAGLLSLRTHTWEYWGQGTQVTVSS
B2: NBX0748 (VHH)
VHH: B1 VHH with A23V, T24A, T104S, Y109L
B3: NBX0728 (VHH)
VHH: B1 VHH with T24A, G26A, I51V, G98D, L100I
B4: NBX17024 (VHH)
VHH: QVQLQESGPGLVKPSQTLSLTCTVSGGSITTSYSTWSWIRQPPGKGLEWMGVIADDGSAEYSPSLKSRTSISLDTSKNQFSLQLSSVTPEDTAVYYCARRGGAWGSNWWAYHMDDWGKGTLVTVSS
B5: NBX0726 (VHH)
VHH: QVQLQQSGGGLVQAGGSVRLSCTANGLTFGNYAMAWFRRTPGKERAFVGGMSASGAGTYYLDSVKGRFTISRDTAKNTVYLEMNSLKAEDTAVYYCAANSIYPGRRWASYDYWGQGTQVTVSS
B6: NBX0727 (VHH)
VHH: QVQLQQSGGGLVQAGGSVRLSCAASGLTLGNYALAWFRRTPGKEREFVAGMSGSGAGTYYLDSVNGRFTISRDNAKNTLYLQMNSLKAEDTAVYYCAANSIYPGRRWASYDYWGQGTQVTVSS

Key:
Eimeria tenella MIC2 = molecular target: T1, Eimeria tenella MIC2 (Eimeria tenella); assay: phage ELISA, antigen-coated wells;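 note: antigen dissolved in PBS and coated onto wells, with negative-control wells holding PBS alone as the reference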
T1 construct: Recombinant antigen coated on ELISA wells; also called EtMIC2
T1 chain: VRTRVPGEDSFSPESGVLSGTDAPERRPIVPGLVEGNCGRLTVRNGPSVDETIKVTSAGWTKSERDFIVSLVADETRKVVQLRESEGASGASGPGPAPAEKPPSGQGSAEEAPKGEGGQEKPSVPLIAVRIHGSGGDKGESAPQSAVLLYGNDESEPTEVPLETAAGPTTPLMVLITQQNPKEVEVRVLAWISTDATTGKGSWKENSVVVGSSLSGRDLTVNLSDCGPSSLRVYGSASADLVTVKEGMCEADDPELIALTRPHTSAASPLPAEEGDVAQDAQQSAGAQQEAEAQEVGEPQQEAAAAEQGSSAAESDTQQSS
Text: Black bars show binding to wells coated with the antigen specified in Tables 1 and 2 dissolved in phosphate-buffered saline (PBS). Grey bars are negative controls that show binding to wells coated with PBS only.

[1] = molecular target: T2, GST fusion of the EmAMA1-binding peptide of EmRON2 (Eimeria maxima, UniProt P08515 1-218 = GST); assay: phage ELISA, wells coated with GST-RON2 peptide
T2 construct: Expressed in E. coli, purified as the other antigens but without TEV cleavage, so a His tag and TEV site probably remain; also called GST-RON2 peptide
T2 sequence (P08515 1-218, tags or fused parts left off): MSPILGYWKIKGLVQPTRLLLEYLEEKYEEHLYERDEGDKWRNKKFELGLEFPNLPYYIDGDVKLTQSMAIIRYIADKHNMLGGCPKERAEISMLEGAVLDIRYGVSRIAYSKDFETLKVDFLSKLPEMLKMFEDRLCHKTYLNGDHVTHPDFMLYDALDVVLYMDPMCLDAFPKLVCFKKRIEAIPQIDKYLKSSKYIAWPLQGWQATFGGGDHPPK

Row | Binder | binding relative to PBS-coated wells (Eimeria tenella MIC2) [times] | binding relative to GST-coated wells [1] [times] | binding relative to PBS-coated wells [1] [times]
1 | B1 | ≥ 4 | – | –
2 | B2 | ≥ 4 | – | –
3 | B3 | ≥ 4 | – | –
4 | B4 | – | ≥ 3 | ≥ 4
5 | B5 | ≥ 4 | – | –
6 | B6 | ≥ 4 | – | –
